Source: paper PMC12392869 (2025)

Target: biotinylated NeoNectin candidate 1 (NN-C1) (biotin (N-terminal biotin; enzymatic biotinylation of the Avi-tag))
Assay: BLI

B1: integrin αvβ8 ectodomain (complex)
chain 1: FNLDVDSPAEYSGPEGSYFGFAVDFFVPSASSRMFLLVGAPKANTTQPGIVEGGQVLKCDWSSTRRCQPIEFDATGNRDYAKDDPLEFKSHQWFGASVRSKQDKILACAPLYHWRTEMKQEREPVGTCFLQDGTKTVEYAPCRSQDIDADGQGFCQGGFSIDFTKADRVLLGGPGSFYWQGQLISDQVAEIVSKYDPNVYSIKYNNQLATRTAQAIFDDSYLGYSVAVGDFNGDGIDDFVSGVPRAARTLGMVYIYDGKNMSSLYNFTGEQMAAYFGFSVAATDINGDDYADVFIGAPLFMDRGSDGKLQEVGQVSVSLQRASGDFQTTKLNGFEVFARFGSAIAPLGDLDQDGFNDIAIAAPYGGEDKKGIVYIFNGRSTGLNAVPSQILEGQWAARSMPPSFGYSMKGATDIDKNGYPDLIVGAFGVDRAILYRARPVITVNAGLEVYPSILNQDNKTCSLPGTALKVSCFNVRFCLKADGKGVLPRKLNFQVELLLDKLKQKGAIRRALFLYSRSPSHSKNMTISRGGLMQCEELIAYLRDESEFRDKLTPITIFMEYRLDYRTAADTTGLQPILNQFTPANISRQAHILLDCGEDNVCKPKLEVSVDSDQKKIYIGDDNPLTLIVKAQNQGEGAYEAELIVSIPLQADFIGVVRNNEALARLSCAFKTENQTRQVVCDLGNPMKAGTQLLAGLRFSVHQQSEMDTSVKFDLQIQSSNLFDKVSPVVSHKVDLAVLAAVEIRGVSSPDHVFLPIPNWEHKENPETEEDVGPVVQHIYELRNNGPSSFSKAMLHLQWPYKYNNNTLLYILHYDIDGPMNCTSDMEINPLRIKISSLQTTEKNDTVAGQGERDHLITKRDLALSEGDIHTLGCGVAQCLKIVCQVGRLDRGKSAILYVKSLLWTETFMNKENQNHSYSLKSSASFNVIEFPYKNLPIEDITNSTLVTTNVTWGIQPAPMPV
chain 2: EDNRCASSNAASCARCLALGPECGWCVQEDFISGGSRSERCDIVSNLISKGCSVDSIEYPSVHVIIPTENEINTQVTPGEVSIQLRPGAEANFMLKVHPLKKYPVDLYYLVDVSASMHNNIEKLNSVGNDLSRKMAFFSRDFRLGFGSYVDKTVSPYISIHPERIHNQCSDYNLDCMPPHGYIHVLSLTENITEFEKAVHRQKISGNIDTPEGGFDAMLQAAVCESHIGWRKEAKRLLLVMTDQTSHLALDSKLAGIVVPNDGNCHLKNNVYVKSTTMEHPSLGQLSEKLIDNNINVIFAVQGKQFHWYKDLLPLLPGTIAGEIESKAANLNNLVVEAYQKLISEVKVQVENQVQGIYFNITAICPDGSRKPGMEGCRNVTSNDEVLFNVTVTMKKCDVTGGKNYAIIKPIGFNETAKIHIHRNCSCQCEDNRGPKGKCVDETFLDSKCFQCDENKCHFDEDQFSSESCKSHKDQPVCSGRGVCVCGKCSCHKIKLGKVYGKYCEKDDFSCPYHHGNLCAGHGECEAGRCQCFSGWEGDRCQCPSAAAQHCVNSKGQVCSGRGTCVCGRCECTDPRSIGRFCEHCPTCYTACKENWNCMQCLHPHNLSQAILDQCKTSCALMEQQHYVDQTSECFSSPSYLR
  Kd: 1000 nM
